Reference: patent US11278600B2, “Human alpha-galactosidase variants” (Codexis, Inc., priority 2014, dated 2022)

B1: 552 (protein)
chain: LDNGLARTPTMGWLHWERFMCNLDCQEEPDSCISEKLFMEMAERMVSEGWKDAGYEYLCIDDCWMAPQRDSEGRLQADPQRFPHGIRQLANHVHSKGLKLGIYADVGNKTCAGFPGSFGYYDIDAQTFADWGVDLLKFDGCYCDSLENLADGYKHMSLALNRTGRSIVYSCEWPLYMWPFQKPNYTEIRQYCNHWRNFADIDDSWASIKSILDWTSRNQERIVDVAGPGGWNDPDMLVIGNFGLSWDQQVTQMALWAIMAAPLFMSNDLRHISPQAKALLQDKDVIAINQDPLGKQGYQLRKGDNFEVWERPLSGDDWAVAIINRQEIGGPRSYTIPVASLGKGVACNPACFITQLLPVKRQLGFYNWTSRLKSHINPTGTVLLQLENTMQMSLKDLL
modifications: Synthetic Polypeptide sequence of Variant No. 552 of mature Human GLA
B2: 553 (protein)
chain: LDNGLARTPTMGWLHWERFMCNLDCQEEPDSCISEKLFMEMAERMVSEGWKDAGYEYLCIDDCWMAPQRDSEGRLQADPQRFPHGIRQLANHVHSKGLKLGIYADVGNKTCAGFPGSFGYYDIDAQTFADWGVDLLKFDGCYCDSLENLADGYKHMSLALNRTGRSIVYSCEWPLYMWPFQKPNYTEIRQYCNHWRNFADIDDSWASIKSILDWTSRNQERIVDVAGPGGWNDPDMLVIGNFGLSWDQQVTQMALWAIMAAPLFMSNDLRHISPQAKALLQDKDVIAINQDPLGKQGYQLRKGDNFEVWERPLSGDQWAVAIINRQEIGGPRSYTIPVASLGKGVACNPACFITQLLPVKRQLGFYNWTSRLKSHINPTGTVLLQLENTMQMSLKDLL
modifications: Synthetic Polypeptide sequence of Variant No. 553 of mature Human GLA
B3: 517 (protein)
chain: LQNGLARTPTMGWLHWERFMCNLDCQEEPDSCISEKLFMEMAERMVSEGWKDAGYEYLCIDDCWMAPQRDSEGRLQADPQRFPHGIRQLANHVHSKGLKLGIYADVGNKTCAGFPGSFGYYDIDAQTFADWGVDLLKFDGCYCDSLENLADGYKHMSLALNRTGRSIVYSCEWPLYMWPFQKPNYTEIRQYCNHWRNFADIDDSWASIKSILDWTSRNQERIVDVAGPGGWNDPDMLVIGNFGLSWDQQVTQMALWAIMAAPLFMSNDLRHISPQAKALLQDKDVIAINQDPLGKQGYQLRKGDNFEVWERPLSGDAWAVAIINRQEIGGPRSYTIPVASLGKGVACNPACFITQLLPVKRQLGFYNWTSRLKSHINPTGTVLLQLENTMQMSLKDLL
modifications: Synthetic Polypeptide sequence of Variant No. 517 of mature Human GLA
B4: 554 (protein)
chain: LDNGLARTPTMGWLHWERFMCNLDCQEEPDSCISEKLFMEMAERMVSEGWKDAGYEYLCIDDCWMAPQRDSEGRLQADPQRFPHGIRQLANHVHSKGLKLGIYADVGNKTCAGFPGSFGYYDIDAQTFADWGVDLLKFDGCYCDSLENLADGYKHMSLALNRTGRSIVYSCEWPLYMWPFQKPNYTEIRQYCNHWRNFADIDDSWASIKSILDWTSRNQERIVDVAGPGGWNDPDMLVIGNFGLSWDQQVTQMALWAIMAAPLFMSNDLRHISPQAKALLQDKDVIAINQDPLGKQGYQLRKGDNFEVWERPLSGDAWAVAIINRQEIGGPRSYTIPVASLGKGVGCNPACFITQLLPVKRQLGFYNWTSRLKSHINPTGTVLLQLENTMQMSLKDLL
modifications: Synthetic Polypeptide sequence of Variant No. 554 of mature Human GLA
B5: 555 (protein)
chain: LDNGLARTPTMGWLHWERFMCNLDCQEEPDSCISEKLFMEMAERMVSEGWKDAGYEYLCIDDCWMAPQRDSEGRLQADPQRFPHGIRQLANHVHSKGLKLGIYADVGNKTCAGFPGSFGYYDIDAQTFADWGVDLLKFDGCYCDSLENLADGYKHMSLALNRTGRSIVYSCEWPLYMWPFQKPNYTEIRQYCNHWRNFADIDDSWASIKSILDWTSRNQERIVDVAGPGGWNDPDMLVIGNFGLSWDQQVTQMALWAIMAAPLFMSNDLRHISPQAKALLQDKDVIAINQDPLGKQGYQLRKGDNFEVWERPLSGDAWAVAIINRQEIGGPRSYTIPVASLGKAVACNPACFITQLLPVKRQLGFYNWTSRLKSHINPTGTVLLQLENTMQMSLKDLL
modifications: Synthetic Polypeptide sequence of Variant No. 555 of mature Human GLA
B6: 556 (protein)
chain: LDNGLARTPTMGWLHWERFMCNLDCQEEPDSCISEKLFMEMAERMVSEGWKDAGYEYLCIDDCWMAPQRDSEGRLQADPQRFPHGIRQLANHVHSKGLKLGIYADVGNKTCAGFPGSFGYYDIDAQTFADWGVDLLKFDGCYCDSLENLADGYKHMSLALNRTGRSIVYSCEWPLYMWPFQKPNYTEIRQYCNHWRNFADIDDSWASIKSILDWTSRNQERIVDVAGPGGWNDPDMLVIGNFGLSWDQQVTQMALWAIMAAPLFMSNDLRHISPQAKALLQDKDVIAINQDPLGKQGYQLRKGDNFEVWERPLSGDAWAVAIINRQEIGGPRSYTIPVASLGKDVACNPACFITQLLPVKRQLGFYNWTSRLKSHINPTGTVLLQLENTMQMSLKDLL
modifications: Synthetic Polypeptide sequence of Variant No. 556 of mature Human GLA
B7: 557 (protein)
chain: LDNGLARTPTMGWLHWERFMCNLDCQEEPDSCISEKLFMEMAERMVSEGWKDAGYEYLCIDDCWMAPQRDSEGRLQADPQRFPHGIRQLANHVHSKGLKLGIYADVGNKTCAGFPGSFGYYDIDAQTFADWGVDLLKFDGCYCDSLENLADGYKHMSLALNRTGRSIVYSCEWPLYMWPFQKPNYTEIRQYCNHWRNFADIDDSWASIKSILDWTSRNQERIVDVAGPGGWNDPDMLVIGNFGLSWDQQVTQMALWAIMAAPLFMSNDLRHISPQAKALLQDKDVIAINQDPLGKQGYQLRKGDNFEVWERPLSGDAWAVAIINRQEIGGPRSYTIPVASLGKSVACNPACFITQLLPVKRQLGFYNWTSRLKSHINPTGTVLLQLENTMQMSLKDLL
modifications: Synthetic Polypeptide sequence of Variant No. 557 of mature Human GLA
B8: 558 (protein)
chain: LDNGLARTPTMGWLHWERFMCNLDCQEEPDSCISEKLFMEMAERMVSEGWKDAGYEYLCIDDCWMAPQRDSEGRLQADPQRFPHGIRQLANHVHSKGLKLGIYADVGNKTCAGFPGSFGYYDIDAQTFADWGVDLLKFDGCYCDSLENLADGYKHMSLALNRTGRSIVYSCEWPLYMWPFQKPNYTEIRQYCNHWRNFADIDDSWASIKSILDWTSRNQERIVDVAGPGGWNDPDMLVIGNFGLSWDQQVTQMALWAIMAAPLFMSNDLRHISPQAKALLQDKDVIAINQDPLGKQGYQLRKGDNFEVWERPLSGDAWAVAIINRQEIGGPRSYTIPVASLGKGVACNPACFLTQLLPVKRQLGFYNWTSRLKSHINPTGTVLLQLENTMQMSLKDLL
modifications: Synthetic Polypeptide sequence of Variant No. 558 of mature Human GLA

What was measured:
Type in all cases: biochemical
[1] = HTP-analysis of supernatants pretreated with acid (MUGal hydrolysis); details: activity of the variant/activity of Rd3BB (SEQ ID NO: 13); challenge at pH 3.7
Outline: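 Fluorescence of MUGal hydrolysis (Ex. 355 nm, Em. 448 nm) is read after sodium carbonate quench. The enzyme source is INVSc1 yeast culture supernatant, first exposed to pH 3.3-4.3 McIlvaine buffer at 37° C. for 1-3 h, then reacted at pH 4.8 for 30-180 minutes.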

[2] = HTP-analysis of supernatants pretreated with base (MUGal hydrolysis); details: activity of the variant/activity of Rd3BB (SEQ ID NO: 13); challenge at pH 9.7
Outline: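 Supernatants from INVSc1 yeast expressing GLA variants (SD-Ura, 66-84 h, 30° C) were mixed with McIlvaine buffer pH 7.0-8.2 or 200 mM sodium bicarbonate pH 9.1-9.7 and held 1-18 h at 37° C. Residual activity was then measured on MUGal at pH 4.8/4.3, 37° C, 30-180 min, by fluorescence (Ex 355/Em 448 nm).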

[3] = HTP-analysis of yeast culture supernatants, no challenge (MUGal hydrolysis); details: activity of the variant/activity of Rd3BB (SEQ ID NO: 13)
Outline: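 GLA variants expressed in yeast INVSc1, secreted into SD-Ura broth over 66-84 h at 30° C; clarified supernatants tested without challenge. Supernatant mixed with McIlvaine buffer pH 4.8 and 2 mM MUGal (citrate/KCl, pH 4.6), 37° C for 30-180 min, carbonate-quenched, fluorescence Ex 355/Em 448 nm.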

| Molecule | Relative Activity of GLA Variants After Challenge at pH 3.7 [1] | Relative Activity of GLA Variants After Challenge at pH 9.7 [2] | Relative Activity of GLA Variants After No Challenge (NC) [3] |
| --- | --- | --- | --- |
| B1 | + (+ = 1.5 to 5 relative activity over Rd3BB (SEQ ID NO: 13)) | ++ (++ = >5 to 10 relative activity over Rd3BB (SEQ ID NO: 13)) | + (+ = 1.5 to 5 relative activity over Rd3BB (SEQ ID NO: 13)) |
| B2 | + (+ = 1.5 to 5 relative activity over Rd3BB (SEQ ID NO: 13)) | ++ (++ = >5 to 10 relative activity over Rd3BB (SEQ ID NO: 13)) | + (+ = 1.5 to 5 relative activity over Rd3BB (SEQ ID NO: 13)) |
| B3 | + (+ = 1.5 to 5 relative activity over Rd3BB (SEQ ID NO: 13)) | + (+ = 1.5 to 5 relative activity over Rd3BB (SEQ ID NO: 13)) | + (+ = 1.5 to 5 relative activity over Rd3BB (SEQ ID NO: 13)) |
| B4 | + (+ = 1.5 to 5 relative activity over Rd3BB (SEQ ID NO: 13)) | ++ (++ = >5 to 10 relative activity over Rd3BB (SEQ ID NO: 13)) | + (+ = 1.5 to 5 relative activity over Rd3BB (SEQ ID NO: 13)) |
| B5 | + (+ = 1.5 to 5 relative activity over Rd3BB (SEQ ID NO: 13)) | + (+ = 1.5 to 5 relative activity over Rd3BB (SEQ ID NO: 13)) | + (+ = 1.5 to 5 relative activity over Rd3BB (SEQ ID NO: 13)) |
| B6 | − (− = <1.5 relative activity to Rd3BB (SEQ ID NO: 13)) | + (+ = 1.5 to 5 relative activity over Rd3BB (SEQ ID NO: 13)) | − (− = <1.5 relative activity to Rd3BB (SEQ ID NO: 13)) |
| B7 | + (+ = 1.5 to 5 relative activity over Rd3BB (SEQ ID NO: 13)) | ++ (++ = >5 to 10 relative activity over Rd3BB (SEQ ID NO: 13)) | + (+ = 1.5 to 5 relative activity over Rd3BB (SEQ ID NO: 13)) |
| B8 | − (− = <1.5 relative activity to Rd3BB (SEQ ID NO: 13)) | + (+ = 1.5 to 5 relative activity over Rd3BB (SEQ ID NO: 13)) | − (− = <1.5 relative activity to Rd3BB (SEQ ID NO: 13)) |
